Starred links: 1 amine or outer side, 2 acyl side, 3 side chain; linkers in the order of their positions; H or OH if unused. Positions of bridges follow the written chain, without caps; N, C: chain ends. Non-standard residues stand in square brackets, D forms with d. Primed or numbered codes have the meaning given here. PyrS2″ = (S)-3-amino-1-((pent-4-en-1-yloxy)carbonyl)pyrrolidine-3-carboxylic acid (stapling residue), C=CCCCOC(=O)N1CC[C@@](N[*:1])(C(=O)[*:2])C1; B5(16) = 2-amino-2-(pent-4-en-1-yl)hept-6-enoic acid = 2,2-bis(4-pentenyl)glycine (stitching residue), C=CCCCC(CCCC=C)(N[*:1])C(=O)[*:2]; B5(24) = 2-amino-2-(pent-4-en-1-yl)hept-6-enoic acid, 2,2-bis(4-pentenyl)glycine (stitching residue), C=CCCCC(CCCC=C)(N[*:1])C(=O)[*:2]; B5(20) = 2-amino-2-(pent-4-en-1-yl)hept-6-enoic acid = bis(4-pentenyl)glycine, stitching residue, C=CCCCC(CCCC=C)(N[*:1])C(=O)[*:2]; PyrS2 = (S)-3-amino-1-((pent-4-en-1-yloxy)carbonyl)pyrrolidine-3-carboxylic acid, C=CCCCOC(=O)N1CC[C@@](N[*:1])(C(=O)[*:2])C1; B5 = 2-amino-2-(pent-4-en-1-yl)hept-6-enoic acid, C=CCCCC(CCCC=C)(N[*:1])C(=O)[*:2]; Phe(2-CONH2) = NC(=O)c1ccccc1C[C@H](N)C(=O)O; Phe(2-Cl) = N[C@@H](Cc1ccccc1Cl)C(=O)O; Bta = N[C@@H](Cc1csc2ccccc12)C(=O)O; αAllylPro = C=CC[C@@]1(C(=O)O)CCCN1; S8 = C=CCCCCCC[C@](C)(N)C(=O)O; hSer = N[C@@H](CCO)C(=O)O
T1: full-length beta-Catenin (Uniprot ID P35222) (Homo sapiens (Human), UniProt P35222 1-781)
T1 construct: The assay text says full-length; also called bCat; B-Catenin
T1 sequence: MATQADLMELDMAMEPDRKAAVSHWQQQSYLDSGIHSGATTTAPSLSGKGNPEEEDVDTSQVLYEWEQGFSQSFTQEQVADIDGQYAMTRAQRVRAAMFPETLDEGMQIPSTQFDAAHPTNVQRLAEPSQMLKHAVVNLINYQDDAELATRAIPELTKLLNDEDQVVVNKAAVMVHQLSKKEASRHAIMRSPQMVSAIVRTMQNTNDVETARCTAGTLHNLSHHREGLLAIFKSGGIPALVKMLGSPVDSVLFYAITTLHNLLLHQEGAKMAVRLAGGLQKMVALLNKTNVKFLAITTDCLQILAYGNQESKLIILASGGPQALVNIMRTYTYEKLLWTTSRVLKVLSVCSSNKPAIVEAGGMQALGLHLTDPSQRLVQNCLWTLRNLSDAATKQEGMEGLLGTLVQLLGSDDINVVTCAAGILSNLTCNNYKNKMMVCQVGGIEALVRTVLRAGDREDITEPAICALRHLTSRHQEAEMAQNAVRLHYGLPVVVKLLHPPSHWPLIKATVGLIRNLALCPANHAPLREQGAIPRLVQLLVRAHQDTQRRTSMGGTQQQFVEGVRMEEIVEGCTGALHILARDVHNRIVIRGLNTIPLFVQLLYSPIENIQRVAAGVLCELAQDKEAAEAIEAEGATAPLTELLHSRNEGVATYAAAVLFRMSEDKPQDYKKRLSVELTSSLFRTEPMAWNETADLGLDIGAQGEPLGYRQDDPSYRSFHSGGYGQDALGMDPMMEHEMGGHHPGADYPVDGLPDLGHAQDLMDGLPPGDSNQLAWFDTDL

T2: Bcat-Halo (UniProt P35222 1-781, HaloTag NanoBRET 618 Ligand bound in the assay)
T2 construct: Expressed by transfection in HEK293 cells; also called beta-catenin HaloTag NanoBRET construct; not shown: HaloTag
T2 sequence (looked up): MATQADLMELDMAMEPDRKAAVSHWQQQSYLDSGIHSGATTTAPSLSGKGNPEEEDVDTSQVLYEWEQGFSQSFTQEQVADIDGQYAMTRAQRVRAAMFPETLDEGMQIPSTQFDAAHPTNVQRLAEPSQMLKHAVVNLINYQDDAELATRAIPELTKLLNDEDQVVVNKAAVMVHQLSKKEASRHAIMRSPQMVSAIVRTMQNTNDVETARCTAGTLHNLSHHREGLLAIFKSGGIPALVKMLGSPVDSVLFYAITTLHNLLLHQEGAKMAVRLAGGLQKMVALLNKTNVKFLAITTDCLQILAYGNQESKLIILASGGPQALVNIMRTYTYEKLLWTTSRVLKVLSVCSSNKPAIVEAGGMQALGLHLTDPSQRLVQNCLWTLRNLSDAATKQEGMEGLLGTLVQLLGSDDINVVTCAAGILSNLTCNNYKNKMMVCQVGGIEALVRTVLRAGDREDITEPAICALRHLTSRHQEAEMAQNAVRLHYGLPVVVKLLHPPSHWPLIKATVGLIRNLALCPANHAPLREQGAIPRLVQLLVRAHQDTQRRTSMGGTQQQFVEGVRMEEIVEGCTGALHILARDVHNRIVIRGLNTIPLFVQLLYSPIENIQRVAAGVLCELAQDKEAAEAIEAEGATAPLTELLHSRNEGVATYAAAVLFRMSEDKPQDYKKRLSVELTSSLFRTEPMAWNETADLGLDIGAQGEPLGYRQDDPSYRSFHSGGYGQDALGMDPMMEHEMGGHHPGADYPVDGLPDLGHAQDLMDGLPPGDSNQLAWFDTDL

T3: full-length beta-Catenin (Uniprot ID P35222) (Homo sapiens (Human), UniProt P35222 1-781)
T3 construct: also called bCat; B-Catenin
T3 sequence: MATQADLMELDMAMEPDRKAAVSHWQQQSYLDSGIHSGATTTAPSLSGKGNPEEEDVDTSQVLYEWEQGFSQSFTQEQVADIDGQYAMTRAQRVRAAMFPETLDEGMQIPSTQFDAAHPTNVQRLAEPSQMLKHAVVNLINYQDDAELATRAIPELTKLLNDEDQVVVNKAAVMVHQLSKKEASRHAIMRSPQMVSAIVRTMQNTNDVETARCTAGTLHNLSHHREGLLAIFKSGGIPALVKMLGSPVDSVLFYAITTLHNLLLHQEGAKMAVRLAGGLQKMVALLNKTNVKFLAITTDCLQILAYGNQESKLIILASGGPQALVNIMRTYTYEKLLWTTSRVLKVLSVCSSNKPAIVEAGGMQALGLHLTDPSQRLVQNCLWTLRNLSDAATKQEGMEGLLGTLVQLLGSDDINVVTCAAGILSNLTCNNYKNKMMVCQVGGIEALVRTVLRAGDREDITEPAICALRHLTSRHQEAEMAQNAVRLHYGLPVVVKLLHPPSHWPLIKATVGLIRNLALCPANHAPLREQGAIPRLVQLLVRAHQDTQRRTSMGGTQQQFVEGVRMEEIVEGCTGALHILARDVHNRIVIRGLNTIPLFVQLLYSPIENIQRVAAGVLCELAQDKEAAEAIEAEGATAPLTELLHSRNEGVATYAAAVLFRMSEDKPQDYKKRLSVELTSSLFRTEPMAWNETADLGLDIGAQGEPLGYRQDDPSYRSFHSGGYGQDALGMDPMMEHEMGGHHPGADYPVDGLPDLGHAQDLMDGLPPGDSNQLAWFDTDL

T4: full-length beta-Catenin (Uniprot ID P35222) (Homo sapiens (Human), UniProt P35222 2-781)
T4 construct: also called bCat; B-Catenin
T4 sequence: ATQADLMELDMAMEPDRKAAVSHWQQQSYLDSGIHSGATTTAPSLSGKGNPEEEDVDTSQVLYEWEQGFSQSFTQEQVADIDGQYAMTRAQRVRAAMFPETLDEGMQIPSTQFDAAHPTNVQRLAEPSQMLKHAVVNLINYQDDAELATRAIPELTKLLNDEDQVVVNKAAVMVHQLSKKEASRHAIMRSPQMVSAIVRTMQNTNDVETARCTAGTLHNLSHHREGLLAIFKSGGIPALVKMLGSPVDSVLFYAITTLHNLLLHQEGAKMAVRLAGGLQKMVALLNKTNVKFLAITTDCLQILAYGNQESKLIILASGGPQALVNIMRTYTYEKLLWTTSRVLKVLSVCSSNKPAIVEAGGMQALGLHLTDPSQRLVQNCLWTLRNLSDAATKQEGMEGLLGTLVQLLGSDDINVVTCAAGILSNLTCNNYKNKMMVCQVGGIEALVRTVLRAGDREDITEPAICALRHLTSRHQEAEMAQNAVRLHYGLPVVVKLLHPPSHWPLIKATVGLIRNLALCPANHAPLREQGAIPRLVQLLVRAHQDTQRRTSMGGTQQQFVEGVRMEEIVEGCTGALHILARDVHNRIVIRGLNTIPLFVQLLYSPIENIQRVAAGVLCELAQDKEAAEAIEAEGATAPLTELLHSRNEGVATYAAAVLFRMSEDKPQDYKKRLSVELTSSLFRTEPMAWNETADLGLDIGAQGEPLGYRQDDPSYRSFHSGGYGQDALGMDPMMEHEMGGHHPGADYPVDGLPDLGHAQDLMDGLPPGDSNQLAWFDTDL

B1: I-617 (peptide)
peptide: XDLXDEAAFTXFXH
modifications: not fully specified; N-terminal Ac; PL3 (pos 1), B5 (pos 4), S8 (pos 11) stapled (PL3-B5 and B5-S8); BztA (pos 13); C-terminal NH2
notes: Stapled peptide; also called Ac-PL3-Asp-Leu-B5-Asp-Glu-Ala-Ala-Phe-Thr-S8-Phe-BztA-His-NH2
B2: I-622 (peptide)
peptide: XDLXDEAAFTXFXQ
modifications: not fully specified; N-terminal Ac; PL3 (pos 1), B5 (pos 4), S8 (pos 11) stapled (PL3-B5 and B5-S8); BztA (pos 13); C-terminal NH2
notes: Stapled peptide; also called Ac-PL3-Asp-Leu-B5-Asp-Glu-Ala-Ala-Phe-Thr-S8-Phe-BztA-Gln-NH2
B3: I-623 (peptide)
peptide: XDLXDEAAFTXFXQ
modifications: not fully specified; N-terminal Ac; PL3 (pos 1), B5 (pos 4), S8 (pos 11) stapled (PL3-B5 and B5-S8); BztA (pos 13); C-terminal NH2
notes: as for B2
B4: I-602 (peptide)
peptide: XDIXDEAAFQXFXQ
modifications: N-terminal 2PyPrpc cap; PL3 (pos 1), B5 (pos 4), S8 (pos 11) stapled (PL3-B5 and B5-S8); BztA (pos 13); C-terminal NH2
notes: Stapled peptide; also called 2PyPrpc-PL3-Asp-Ile-B5-Asp-Glu-Ala-Ala-Phe-Gln-S8-Phe-BztA-Gln-NH2
B5: I-618 (peptide)
peptide: XDLXDEAAFTXFXH
modifications: not fully specified; N-terminal Ac; PL3 (pos 1), B5 (pos 4), S8 (pos 11) stapled (PL3-B5 and B5-S8); BztA (pos 13); C-terminal NH2
notes: as for B1
B6: I-601 (peptide)
peptide: XDIXDEAAFQXFXQ
modifications: N-terminal Bnc cap; PL3 (pos 1), B5 (pos 4), S8 (pos 11) stapled (PL3-B5 and B5-S8, olefin metathesis); BztA (pos 13); C-terminal NH2
notes: Stapled peptide; also called Bnc-PL3-Asp-Ile-B5-Asp-Glu-Ala-Ala-Phe-Gln-S8-Phe-BztA-Gln-NH2
B7: I-613 (peptide)
peptide: XDIXDRAAFQXFXQ
modifications: not fully specified; N-terminal Ac; PL3 (pos 1), B5 (pos 4), S8 (pos 11) stapled (PL3-B5 and B5-S8); BztA (pos 13); C-terminal NH2
notes: Stapled peptide; also called Ac-PL3-Asp-Ile-B5-Asp-Arg-Ala-Ala-Phe-Gln-S8-Phe-BztA-Gln-NH2
B8: I-614 (peptide)
peptide: XDIXDRAAFQXFXQ
modifications: not fully specified; N-terminal Ac; PL3 (pos 1), B5 (pos 4), S8 (pos 11) stapled (PL3-B5 and B5-S8); BztA (pos 13); C-terminal NH2
notes: as for B7
B9: I-603 (peptide)
peptide: Ac-[αAllylPro]DI[B5]DQAAFQ[S8]F[Bta]Q-NH2
modifications: staple 1-4, 4-11
notes: Stapled peptide; also called Ac-PL3-Asp-Ile-B5-Asp-Gln-Ala-Ala-Phe-Gln-S8-Phe-BztA-Gln-NH2
B10: I-1142 (peptide)
peptide: Ac-[αAllylPro]DF[B5]DDAAFS[PyrS2][Phe(2-Cl)][Bta][dT]-NH2
modifications: staple 1-4, 4-11
notes: Stapled (stitched) peptide composition; olefin isomer not specified
B11: I-1141 (peptide)
peptide: Ac-[αAllylPro]DF[B5(24)]DDAAFS[PyrS2″][Phe(2-Cl)][Bta]T-NH2
modifications: staple 1-4, 4-11
notes: as for B10
B12: I-1146 (peptide)
peptide: Ac-[αAllylPro]DF[B5(16)]DDAAFL[PyrS2″][Phe(2-Cl)][Bta][dT]-NH2
modifications: staple 1-4, 4-11
notes: as for B10
B13: I-1145 (peptide)
peptide: Ac-[αAllylPro]DF[B5]DDAAFL[PyrS2][Phe(2-Cl)][Bta]T-NH2
modifications: staple 1-4, 4-11
notes: as for B10
B14: I-1143 (peptide)
peptide: Ac-[αAllylPro]DF[B5]DDAAFS[PyrS2][Phe(2-Cl)][Bta][hSer]-NH2
modifications: staple 1-4, 4-11
notes: as for B10
B15: I-1144 (peptide)
peptide: Ac-[αAllylPro]DF[B5(24)]DDAAFS[PyrS2″][Phe(2-Cl)][Bta]L-NH2
modifications: staple 1-4, 4-11
notes: as for B10

These binders were tested against T1, full-length beta-Catenin (Uniprot ID …) (assay: fluorescence polarization competition; full-length beta-catenin with 5FAM-TCF4(10-53) probe as competitor).
Outline: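 Readings followed a light-protected 60-minute incubation at 20° C. Each read was done in duplicate. Curves were fit with a 1:1 binding model including hill slope, and stated concentrations are final.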

Row | IC50 [nM] | Binder
1 | 253 | B1
2 | 230 | B2
3 | 103 | B3
4 | 3150 | B4
5 | 135 | B5
6 | 419 | B6
7 | 1630 | B7
8 | 1140 | B8
9 | 392 | B9

These binders were tested against T2, Bcat-Halo (assay: NanoBRET Abs IC50 in HEK293 cells; competitor TCF4-Luc on Bcat-Halo).

Row | IC50 [nM] | Binder
10 | > 20000 | B10
11 | 27300 | B11
12 | > 20000 | B12
13 | 30600 | B13
14 | 33100 | B14
15 | 32800 | B15

These binders were tested against T3, full-length beta-Catenin (Uniprot ID …) (assay: FP competition: full-length beta-catenin 10 nM + 5FAM-TCF4(10-53) 10 nM).
Method: (§1) The plate was incubated protected from light for 60 minutes at 20° C. prior to read. Reads were performed on a CLARIOstar plate reader (BMG Labtech) in duplicate, and data were fitted to a 1:1 binding model with hill slope using an in-house script. All provided concentrations are final concentrations.

Row | IC50 [nM] | Binder
16 | 143 | Ac-[αAllylPro]DA[B5(20)]DEAAFN[S8][Phe(2-CONH2)][Bta]H-NH2 (staple 1-4, 4-11, Stapled peptide composition) [I-513]

What follows are binders tested against T4, full-length beta-Catenin (Uniprot ID …) (assay: fluorescence polarization competition vs 5FAM-TCF4(10-53) on full-length beta-catenin).
Method: as §1

Row | IC50 [nM] | Binder
17 | 22 | B10
18 | 33 | B12
19 | 18 | B13
20 | 12 | B14

Reference: patent US20240116985A1 (published 2024)
